Source: US20200171136A1 (SUMITOMO DAINIPPON PHARMA, published 2020)

Each binder was assayed against T1, Endoplasmic reticulum aminopeptidase 1 (ERAP1) (UniProt Q9NZ08 1-941, limits assumed) (assay: cell-based or functional assay).
T1 sequence (Q9NZ08 whole entry): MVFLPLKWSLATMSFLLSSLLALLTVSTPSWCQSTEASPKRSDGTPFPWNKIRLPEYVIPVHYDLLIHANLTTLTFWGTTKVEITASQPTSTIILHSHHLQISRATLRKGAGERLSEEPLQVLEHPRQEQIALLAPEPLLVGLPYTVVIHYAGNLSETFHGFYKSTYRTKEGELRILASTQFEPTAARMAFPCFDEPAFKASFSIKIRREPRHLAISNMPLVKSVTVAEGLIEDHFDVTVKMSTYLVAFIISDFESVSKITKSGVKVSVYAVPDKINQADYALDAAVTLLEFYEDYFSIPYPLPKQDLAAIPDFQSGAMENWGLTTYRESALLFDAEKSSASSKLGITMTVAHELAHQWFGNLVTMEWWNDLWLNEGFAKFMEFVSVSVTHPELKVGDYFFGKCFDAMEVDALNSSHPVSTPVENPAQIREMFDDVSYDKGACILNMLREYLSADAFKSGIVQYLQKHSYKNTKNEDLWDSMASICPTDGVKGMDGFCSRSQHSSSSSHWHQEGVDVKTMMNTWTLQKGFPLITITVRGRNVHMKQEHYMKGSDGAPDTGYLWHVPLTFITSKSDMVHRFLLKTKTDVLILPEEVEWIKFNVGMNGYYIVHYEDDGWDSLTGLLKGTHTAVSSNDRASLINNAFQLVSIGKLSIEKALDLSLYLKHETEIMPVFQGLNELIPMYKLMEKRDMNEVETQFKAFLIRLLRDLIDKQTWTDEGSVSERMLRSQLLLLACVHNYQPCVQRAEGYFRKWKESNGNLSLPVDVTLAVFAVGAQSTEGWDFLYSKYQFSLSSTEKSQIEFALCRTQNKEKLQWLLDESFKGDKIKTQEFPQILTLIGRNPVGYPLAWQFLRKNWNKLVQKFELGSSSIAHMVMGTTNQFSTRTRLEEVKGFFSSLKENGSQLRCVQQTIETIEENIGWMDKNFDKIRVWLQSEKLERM

First: H-CGLYDGMEHL-OH [peptide CGLYDGMEHL (SEQ ID NO: 98)]
Second: CLVLQELNVTV [peptide CLVLQELNVTV (SEQ ID NO: 93)]
The “formation rate (%) 1 hr later” value of the first is higher: 95.1% for the first, 31.1% for the second.

First: CAGLYDGMEHL [peptide CAGLYDGMEHL (SEQ ID NO: 89)]
Second: CVLQELNVTV [peptide CVLQELNVTV (SEQ ID NO: 99)]
The “formation rate (%) 1 hr later” value of the first is higher: 87.8% for the first, 83.4% for the second.

Going from CLGLYDGMEHL [peptide CLGLYDGMEHL (SEQ ID NO: 90)] to CMGLYDGMEHL [peptide CMGLYDGMEHL (SEQ ID NO: 91)], the “formation rate (%) 1 hr later” value rises from 58.3% to 90.6%.

First: CAVLQELNVTV [peptide CAVLQELNVTV (SEQ ID NO: 92)]
Second: CMVLQELNVTV [peptide CMVLQELNVTV (SEQ ID NO: 94)]
The “formation rate (%) 1 hr later” value of the first is higher: 46.1% for the first, 28.7% for the second.

First: H-CGLYDGMEHL-OH [peptide CGLYDGMEHL (SEQ ID NO: 98)]
Second: CLVLQELNVTV [peptide CLVLQELNVTV (SEQ ID NO: 93)]
The “formation rate (%) 2 hr later” value of the first is higher: 106% for the first, 36.9% for the second.

Compared with CAGLYDGMEHL [peptide CAGLYDGMEHL (SEQ ID NO: 89)], CVLQELNVTV [peptide CVLQELNVTV (SEQ ID NO: 99)] is lower in “formation rate (%) 2 hr later” value: 99.4% for the first, 85.6% for the second.

Compared with CLGLYDGMEHL [peptide CLGLYDGMEHL (SEQ ID NO: 90)], CMGLYDGMEHL [peptide CMGLYDGMEHL (SEQ ID NO: 91)] is higher in “formation rate (%) 2 hr later” value: 94.9% for the first, 103% for the second.

Compared with CAVLQELNVTV [peptide CAVLQELNVTV (SEQ ID NO: 92)], CMVLQELNVTV [peptide CMVLQELNVTV (SEQ ID NO: 94)] is lower in “formation rate (%) 2 hr later” value: 49.9% for the first, 34.5% for the second.

Compared with H-CGLYDGMEHL-OH [peptide CGLYDGMEHL (SEQ ID NO: 98)], CLVLQELNVTV [peptide CLVLQELNVTV (SEQ ID NO: 93)] is lower in “formation rate (%) 4 hr later” value: 100% for the first, 38.1% for the second.

Compared with CAGLYDGMEHL [peptide CAGLYDGMEHL (SEQ ID NO: 89)], CVLQELNVTV [peptide CVLQELNVTV (SEQ ID NO: 99)] is lower in “formation rate (%) 4 hr later” value: 103% for the first, 78.8% for the second.

First: CLGLYDGMEHL [peptide CLGLYDGMEHL (SEQ ID NO: 90)]
Second: CMGLYDGMEHL [peptide CMGLYDGMEHL (SEQ ID NO: 91)]
The “formation rate (%) 4 hr later” value of the first is lower: 88.4% for the first, 96% for the second.

Compared with CAVLQELNVTV [peptide CAVLQELNVTV (SEQ ID NO: 92)], CMVLQELNVTV [peptide CMVLQELNVTV (SEQ ID NO: 94)] is lower in “formation rate (%) 4 hr later” value: 51.3% for the first, 36.5% for the second.

Going from H-CGLYDGMEHL-OH [peptide CGLYDGMEHL (SEQ ID NO: 98)] to CLVLQELNVTV [peptide CLVLQELNVTV (SEQ ID NO: 93)], the “formation rate (%) 8 hr later” value falls from 101% to 36.1%.

Compared with CAGLYDGMEHL [peptide CAGLYDGMEHL (SEQ ID NO: 89)], CVLQELNVTV [peptide CVLQELNVTV (SEQ ID NO: 99)] is lower in “formation rate (%) 8 hr later” value: 97.5% for the first, 83.9% for the second.

Going from CLGLYDGMEHL [peptide CLGLYDGMEHL (SEQ ID NO: 90)] to CMGLYDGMEHL [peptide CMGLYDGMEHL (SEQ ID NO: 91)], the “formation rate (%) 8 hr later” value rises from 88.3% to 101%.

Compared with CAVLQELNVTV [peptide CAVLQELNVTV (SEQ ID NO: 92)], CMVLQELNVTV [peptide CMVLQELNVTV (SEQ ID NO: 94)] is lower in “formation rate (%) 8 hr later” value: 53.5% for the first, 36.8% for the second.

Biological target: T1, Endoplasmic reticulum aminopeptidase 1 …
Assay: cell-based or functional assay
Remark: another data set of the same source

First: GCVLQELNVTV [peptide GCVLQELNVTV (SEQ ID NO: 149)]
Second: ACVLQELNVTV [peptide ACVLQELNVTV (SEQ ID NO: 143)]
The “formation rate of … (SEQ ID NO: 43)(%)” value of the first is lower: 1.1% for the first, 1.8% for the second.

Going from SCVLQELNVTV [peptide SCVLQELNVTV (SEQ ID NO: 157)] to YCVLQELNVTV [peptide YCVLQELNVTV (SEQ ID NO: 160)], the “formation rate of … (SEQ ID NO: 43)(%)” value falls from 1.3% to 0.7%.

Biological target: T1, Endoplasmic reticulum aminopeptidase 1 …
Assay: cell-based or functional assay
Remark: another data set of the same source

Compared with ECGLYDGMEHL [peptide ECGLYDGMEHL (SEQ ID NO: 189)], ICGLYDGMEHL [peptide ICGLYDGMEHL (SEQ ID NO: 192)] is lower in “formation rate of … (SEQ ID NO: 19)(%)” value: 2.9% for the first, 0% for the second.

Compared with MCGLYDGMEHL [peptide MCGLYDGMEHL (SEQ ID NO: 195)], GCGLYDGMEHL [peptide GCGLYDGMEHL (SEQ ID NO: 190)] is higher in “formation rate of … (SEQ ID NO: 19)(%)” value: 5.8% for the first, 10.4% for the second.

Compared with DCGLYDGMEHL [peptide DCGLYDGMEHL (SEQ ID NO: 188)], NCGLYDGMEHL [peptide NCGLYDGMEHL (SEQ ID NO: 187)] is higher in “formation rate of … (SEQ ID NO: 19)(%)” value: 3.2% for the first, 18.2% for the second.

LCGLYDGMEHL [peptide LCGLYDGMEHL (SEQ ID NO: 193)] and HCGLYDGMEHL [peptide HCGLYDGMEHL (SEQ ID NO: 191)] are the same in “formation rate of … (SEQ ID NO: 19)(%)” value: 0% for the first, 0% for the second.

First: FCGLYDGMEHL [peptide FCGLYDGMEHL (SEQ ID NO: 196)]
Second: KCGLYDGMEHL [peptide KCGLYDGMEHL (SEQ ID NO: 194)]
The “formation rate of … (SEQ ID NO: 19)(%)” value of the first is higher: 17.6% for the first, 0% for the second.

Biological target: T1, Endoplasmic reticulum aminopeptidase 1 …
Assay: cell-based or functional assay
Remark: another data set of the same source

CFGLYDGMEHL [peptide CFGLYDGMEHL (SEQ ID NO: 168)] and CPGLYDGMEHL [peptide CPGLYDGMEHL (SEQ ID NO: 169)] are the same in “formation rate of … (SEQ ID NO: 19)(%)” value: 0% for the first, 0% for the second.

First: CQGLYDGMEHL [peptide CQGLYDGMEHL (SEQ ID NO: 162)]
Second: CEGLYDGMEHL [peptide CEGLYDGMEHL (SEQ ID NO: 163)]
The “formation rate of … (SEQ ID NO: 19)(%)” value of the first is higher: 56.9% for the first, 6.2% for the second.

Going from CIGLYDGMEHL [peptide CIGLYDGMEHL (SEQ ID NO: 166)] to CHGLYDGMEHL [peptide CHGLYDGMEHL (SEQ ID NO: 165)], the “formation rate of … (SEQ ID NO: 19)(%)” value falls from 0.4% to 0%.

CKGLYDGMEHL [peptide CKGLYDGMEHL (SEQ ID NO: 167)] and CGGLYDGMEHL [peptide CGGLYDGMEHL (SEQ ID NO: 164)] are the same in “formation rate of … (SEQ ID NO: 19)(%)” value: 0% for the first, 0% for the second.

Biological target: T1, Endoplasmic reticulum aminopeptidase 1 …
Assay: cell-based or functional assay
Remark: another data set of the same source

Going from PCGLYDGMEHL [peptide PCGLYDGMEHL (SEQ ID NO: 179)] to SCGLYDGMEHL [peptide SCGLYDGMEHL (SEQ ID NO: 180)], the “formation rate of … (SEQ ID NO: 19)(%)” value rises from 19.2% to 22.2%.

Going from TCGLYDGMEHL [peptide TCGLYDGMEHL (SEQ ID NO: 181)] to YCGLYDGMEHL [peptide YCGLYDGMEHL (SEQ ID NO: 183)], the “formation rate of … (SEQ ID NO: 19)(%)” value falls from 7.3% to 5.7%.

Compared with RCGLYDGMEHL [peptide RCGLYDGMEHL (SEQ ID NO: 186)], QCGLYDGMEHL [peptide QCGLYDGMEHL (SEQ ID NO: 178)] is higher in “formation rate of … (SEQ ID NO: 19)(%)” value: 0% for the first, 3.6% for the second.

Going from ACGLYDGMEHL [peptide ACGLYDGMEHL (SEQ ID NO: 185)] to VCGLYDGMEHL [peptide VCGLYDGMEHL (SEQ ID NO: 184)], the “formation rate of … (SEQ ID NO: 19)(%)” value falls from 5.2% to 2.4%.

In the case of WCGLYDGMEHL [peptide WCGLYDGMEHL (SEQ ID NO: 182)], the “formation rate of … (SEQ ID NO: 19)(%)” value is reported as 0%.

Biological target: T1, Endoplasmic reticulum aminopeptidase 1 …
Assay: cell-based or functional assay
Remark: another data set of the same source

Compared with CDGLYDGMEHL [peptide CDGLYDGMEHL (SEQ ID NO: 176)], CWGLYDGMEHL [peptide CWGLYDGMEHL (SEQ ID NO: 171)] is lower in “formation rate of … (SEQ ID NO: 19)(%)” value: 25% for the first, 0% for the second.

First: CVGLYDGMEHL [peptide CVGLYDGMEHL (SEQ ID NO: 173)]
Second: CTGLYDGMEHL [peptide CTGLYDGMEHL (SEQ ID NO: 170)]
The “formation rate of … (SEQ ID NO: 19)(%)” value of the first is lower: 0% for the first, 89.4% for the second.

Going from CNGLYDGMEHL [peptide CNGLYDGMEHL (SEQ ID NO: 175)] to CYGLYDGMEHL [peptide CYGLYDGMEHL (SEQ ID NO: 172)], the “formation rate of … (SEQ ID NO: 19)(%)” value falls from 82.2% to 0%.

Going from CSGLYDGMEHL [peptide CSGLYDGMEHL (SEQ ID NO: 177)] to CRGLYDGMEHL [peptide CRGLYDGMEHL (SEQ ID NO: 174)], the “formation rate of … (SEQ ID NO: 19)(%)” value falls from 1.1% to 0%.
